Measurements taken from patent US20220403048A1, “BINDING MOLECULES TO ARGINASE II [ARG2]” (Cancer Research Technology Limited, priority 2019, published 2022).

Biological target: T1, THP-1 lysate derived human trimeric ARG2 (Homo sapiens, UniProt P78540)
T1 construct: expressed in transfected cells; host or cells: THP-1 cells overexpressing human ARG2 (cell lysate)
T1 sequence (P78540 23-354): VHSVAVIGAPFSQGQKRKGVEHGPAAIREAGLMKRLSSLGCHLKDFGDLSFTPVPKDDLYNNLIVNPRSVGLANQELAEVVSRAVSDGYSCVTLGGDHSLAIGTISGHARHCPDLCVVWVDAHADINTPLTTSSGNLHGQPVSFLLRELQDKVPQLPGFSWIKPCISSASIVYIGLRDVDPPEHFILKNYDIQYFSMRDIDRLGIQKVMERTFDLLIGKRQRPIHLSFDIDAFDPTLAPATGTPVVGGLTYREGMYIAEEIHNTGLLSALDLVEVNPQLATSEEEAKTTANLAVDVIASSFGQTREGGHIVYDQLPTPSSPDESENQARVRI
Test: THP-1 lysate derived human ARG2 enzyme inhibition assay
Format: biochemical
Conditions: recombinant human IgG1, lysate without plasma (section 3.3), FIG. 13; read-out: THP-1 lysate ARG2 EIA IC50
Description: Anti-ARG2 IgGs were tested for their ability to inhibit mammalian expressed human ARG2 produced in transfected THP-1 cells. To do this cell lysates were prepared from THP-1 cells overexpressing human ARG2 and from wild type THP-1 cells. 350 million cells were suspended in 3 ml tris buffered saline (25 mM Tris+150 mM sodium chloride in dH2O, pH 7.4) and cell lysates prepared by passing through a 26G needle 20 times. A BCA assay was used to measure the protein concentration in the lysate. […] Antibodies were tested alongside N-Hydroxyl-L-Arginine (a small molecule competitive inhibitor of ARG2) as a positive control and CEA6 (irrelevant isotype control antibody) as a negative control. Data points were plotted and IC50 values determined using a four parameter fit in GraphPad Prism (FIG. 11, Table 13).
Anti-ARG2 IgGs were tested for their ability to inhibit to mammalian expressed human ARG2 produced in transfected THP-1 cells. […] Urea detection reagents, O-Phthaldialdehyde (1.5 mM O-Phthaldialdehyde, 7% H2SO4, 0.03% Brij L23) and N-(1-Napthyl)ethylenediamine (1.66 mM N-(1-Napthyl)ethylenediamine, 81 mM Boric acid, 21% H2SO4, 0.03% Brij L23) were mixed 1:1 just prior to use and 80 μl/well were added, incubated for 1 hour at room temperature and absorbance at 505 nm was read on a Pherastar plate reader. […]

IC50: 5.36 nM
B1: C0021158: anti-ARG2 antibody, second generation lead, VH SEQ ID NO: 272, VL SEQ ID NO: 277 (antibody, listed as Homo sapiens, V domains shown)
VH: EVQLLESGGGLVQPGGSLRLSCAASGFTFRYEVAAWVRQAPGKGLEWVSAISGPIPKGYYADSVKGRFTISRDNSKNTLYLQMNSLRAEDTAVYYCARLRADLGLYMDLWGRGTLVTVPS
VL: QSVLTQPPSVSAAPGQKVTISCSGSSSNIGNHYVSWYQQLPGTAPKLLIYDNSERTAGVPDRFSGSKSGTSATLGITGLQTGDEADYYCGTWDELTSNLVFGGGTKLTVL
modifications: C0021158
